We go through three molecules from article PMC7272640, “Molecular docking, synthesis and biological evaluation of Vascular Endothelial Growth Factor (VEGF) B based peptide as antiangiogenic agent targeting the second domain of the Vascular Endothelial Growth Factor Receptor 1 (VEGFR1D2) for anticancer application” (Signal Transduction and Targeted Therapy, 2020).

Bridges are numbered along the chain shown (N, C = ends).

The target of assay [1] is VEGFR1 domain 2 (Homo sapiens) (UniProt P17948). As to conditions: cited from earlier work.
Sequence of VEGFR1 domain 2 (Homo sapiens) (P17948 151-214): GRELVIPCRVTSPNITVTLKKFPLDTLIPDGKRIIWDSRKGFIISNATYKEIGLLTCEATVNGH
The next assay relates to VEGFR1 versus VEGFR2. The conditions noted are these: cited from earlier work. The text has this: Tumor angiogenesis is regulated by the binding of VEGF to receptors (VEGFRs). The major mediator of tumor angiogenesis is VEGFA, more commonly referred to as VEGF. […] However, the role of the VEGFR1 in VEGF-mediated angiogenesis remains a mystery.
In assay [2] the target is entire extracellular portion of VEGFR1. The conditions noted are these: VEGFA to entire extracellular portion of VEGFR1; no reference given; cited from earlier work. As for the experimental part: (§1) Subsequently, to verify the ability of VGB3 to form a complex with VEGFR1D2, microscale thermophoresis (MST) measurements were performed using a VEGFR1D2-labeled with VGB3 at increasing concentrations. As well as measuring the Kd between VGB3 and its receptor this functional test will also confirm whether the refolded protein VEGFR1D2 assumes the correct conformation. Fluorescently labeled VEGFR1D2 purified and titrated as 1:1 with VGB3.

The target of another assay is VEGFR1 D2. The conditions noted are these: quantity not named as Kd in the text; cited from earlier work. As for the experimental part: as §1
The target in assay [3] is VEGFR-1 (as used in the ELISA-based displacement assay) (UniProt P17948).
Sequence of VEGFR-1 (as used in the ELISA-based displacement assay) (P17948 27-1338): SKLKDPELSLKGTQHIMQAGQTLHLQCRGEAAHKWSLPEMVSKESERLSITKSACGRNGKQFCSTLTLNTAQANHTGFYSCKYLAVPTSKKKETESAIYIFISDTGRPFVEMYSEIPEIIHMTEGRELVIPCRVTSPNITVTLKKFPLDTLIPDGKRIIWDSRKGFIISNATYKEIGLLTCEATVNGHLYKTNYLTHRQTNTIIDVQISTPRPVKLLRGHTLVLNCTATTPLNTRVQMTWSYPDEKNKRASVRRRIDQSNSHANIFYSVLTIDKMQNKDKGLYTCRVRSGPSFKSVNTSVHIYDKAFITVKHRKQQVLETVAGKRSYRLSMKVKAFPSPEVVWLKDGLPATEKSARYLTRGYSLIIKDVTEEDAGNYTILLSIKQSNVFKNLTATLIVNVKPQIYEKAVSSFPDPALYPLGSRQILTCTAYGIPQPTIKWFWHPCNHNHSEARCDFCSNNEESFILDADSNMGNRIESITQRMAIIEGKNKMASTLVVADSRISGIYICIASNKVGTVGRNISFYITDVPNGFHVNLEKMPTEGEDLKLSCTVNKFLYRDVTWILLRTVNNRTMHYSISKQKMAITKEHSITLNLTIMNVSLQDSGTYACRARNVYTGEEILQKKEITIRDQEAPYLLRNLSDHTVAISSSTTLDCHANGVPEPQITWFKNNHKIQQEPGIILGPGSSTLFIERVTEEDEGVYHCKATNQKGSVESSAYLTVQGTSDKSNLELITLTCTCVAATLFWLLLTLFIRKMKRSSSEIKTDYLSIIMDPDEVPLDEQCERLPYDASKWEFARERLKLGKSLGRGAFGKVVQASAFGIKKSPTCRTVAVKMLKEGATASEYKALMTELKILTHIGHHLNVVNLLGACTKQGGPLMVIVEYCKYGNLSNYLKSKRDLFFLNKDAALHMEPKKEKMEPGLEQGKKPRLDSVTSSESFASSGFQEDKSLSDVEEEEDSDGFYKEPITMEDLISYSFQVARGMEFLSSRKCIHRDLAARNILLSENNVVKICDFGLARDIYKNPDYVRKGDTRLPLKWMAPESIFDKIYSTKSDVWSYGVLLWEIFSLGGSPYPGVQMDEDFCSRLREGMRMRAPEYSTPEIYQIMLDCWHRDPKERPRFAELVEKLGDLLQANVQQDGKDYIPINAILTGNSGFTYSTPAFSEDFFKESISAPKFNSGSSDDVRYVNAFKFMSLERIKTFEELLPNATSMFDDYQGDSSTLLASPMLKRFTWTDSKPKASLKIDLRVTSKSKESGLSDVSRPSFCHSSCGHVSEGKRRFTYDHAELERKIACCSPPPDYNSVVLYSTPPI
Assay [4] has as its target T1, His-tagged VEGFR1D2 (second extracellular domain of Vascular Endothelial Growth Factor Receptor 1) (UniProt P17948 129-226, fluorescently labeled).
T1 construct: VEGFR1 (Flt-1), second extracellular domain; The PDB entries are the cited complexes of VEGFR1D2 used for the design, not necessarily the limits of this construct
As to the kind of experiment: MST; fixed concentration of fluorescently labeled VEGFR1D2; VGB3 titrated at increasing concentrations, initial concentration of ligand 0.25 mM. The conditions noted are these: both partners purified.

In assay [5] the target is VEGFR-1 (as used in the ELISA-based displacement assay) (UniProt P17948). Kind of assay: ELISA; VEGFR-1-binding ELISA-based displacement assay; displacement of btVEGF165 (100 pM) by VGB3.

T1 sequence (P17948 129-226): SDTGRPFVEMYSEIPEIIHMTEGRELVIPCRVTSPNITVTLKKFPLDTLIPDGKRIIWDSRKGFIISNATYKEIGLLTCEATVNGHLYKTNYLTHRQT

For VEGFA (from UniProt P15692), the Kd in assay [1] was 50 nM.

Turning to VEGF, the “affinity of VEGFR1 for VEGF, times higher than VEGFR2” value in the assay on VEGFR1 versus VEGFR2 is listed as 10 times. Besides, the Kd in assay [2] is roughly 50 nM. Also, the “tight association between VEGFR1 D2 and VEGF” value at VEGFR1 D2 was 113 pM.

B1: VGB3 (mimetic decapeptide based on VEGFB) (peptide)
peptide: H-ECRPPDDGLC-OH
modifications: disulfide 2-10 (inferred)
notes: VEGFB, strand beta7, printed as 102-ECRP-105; VEGFB, loop connecting beta3 to beta4, printed as 62-PDDGL-66; Cys residue added to the C terminus to make the disulfide bond; also called VGB3 peptide; source: synthetic peptide (solid-phase peptide synthesis)
In assay [3], B1 displayed an inhibition of VEGF165 (0.75 pM)-stimulated proliferation of 4T1 mammary carcinoma cells (MTT assay), IC50 of 30 nM. In assay [4], the affinity, expressed as Kd, was 1960 ± 690 nM and the “stoichiometry N” value turned out to be 1. Also, the percent displacement of btVEGF165 (100 pM) at 100 μM VGB3 in assay [5] worked out at 63%.
